US6177557

Key:
[1] = biological target: thrombin (alpha) (human) (UniProt P00734+P00734); test: filter
[2] = biological target: basic fibroblast growth factor (bFGF) (UniProt P09038); test: filter
[3] = bulk pool, text also says after 12 rounds, apparently unselected

Sequence of basic fibroblast growth factor (bFGF) (P09038 135-288): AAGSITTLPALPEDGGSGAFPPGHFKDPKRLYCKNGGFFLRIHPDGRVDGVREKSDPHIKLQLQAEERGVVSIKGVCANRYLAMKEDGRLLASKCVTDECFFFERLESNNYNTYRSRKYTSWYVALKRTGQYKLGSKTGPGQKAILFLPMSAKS

Work on “AGATGCCTGTCGAGCATGCTNGTAGCTAAACTGCTTTGTCGACGGG [30N DNA pool after SELEX]” yielded a Kd ([1]; pool after 12 rounds) of 8 nM.

With “AGATGCCTGTCGAGCATGCTNGTAGCTAAACTGCTTTGTCGACGGG [60N DNA pool after SELEX]” the Kd ([1]; pool after 12 rounds) was 8 nM.

In the case of “AGATGCCTGTCGAGCATGCTNGTAGCTAAACTGCTTTGTCGACGGG [bulk 30N DNA]”, the Kd [1, 3] is reported as 8000 nM.

Sequence “AGATGCCTGTCGAGCATGCTNGTAGCTAAACTGCTTTGTCGACGGG [bulk 60N DNA]” has a Kd [1, 3] of 5000 nM.

“GGGAGACAAGAAUAACGCUCAANNNNNNNNNNNNNNNNNNNNNNNNNNNNNNUUCGACAGGAGGCUCACAACAGGC [2'-NH2 starting random RNA A]” showed a Kd ([2]; 2'-NH2 pyrimidines, unselected pool, +/-11) of 65 nM.

With “GGGAGAUGCCUGUCGAGCAUGCUGNNNNNNNNNNNNNNNNNNNNNNNNNNNNNNGUAGCUAAACAGCUUUGUCGACGGG [random RNA B (unmodified)]” the Kd ([2]; unselected pool, PBS, 37 C) was 560 nM.

“GGGAGCUCAGAAUAAACGCUCAANNNNNNNNNNNNNNNNNNNNNNNNNNNNNNUUCGACAUGAGGCCCGGAUCCGGC [random RNA A (unmodified)]” showed a Kd ([2]; unselected pool, PBS, 37 C) of 300 nM.

“GGGAGGACGATGCGGGGGGCTATGCGATACAGTCGCGNTANGCTAGGCGCAGACGAGCGGGA [m26]” was tested, and the Kd ([2]; PBS) was 1.6 nM.

“GGGAGGACGATGCGGNCAGACGACGACGGGGA [DNA SELEX pool Experiment 3 round 10]” gave a Kd ([2]; round 10 pool) of 2.5 nM.

“GGGAGGACGATGCGGNCAGACGACGACGGGGA [DNA SELEX pool Experiment 3 round 11]” was tested, and the Kd ([2]; round 11 pool) was 4 nM.

With “GGGAGGACGATGCGGNCAGACGACGACGGGGA [DNA random pool 30N7.1PS (round 0)]” the Kd ([2]; round 0 pool) was 300 nM.

“GGGAGGACGAUGCGGNNNNNNNNNNNNNNNNNNNNNNNNNNNNNNNNNNNNNNNNNNNNNNNNNNCAGACGACUCGCCCGA [2'-NH2 starting random RNA B]” showed a Kd ([2]; 2'-NH2 pyrimidines, unselected pool, +/-140) of 240 nM.
